Results as given in article PMC3527552.

Experiment: cell lysate anti-HA Western blot
Conditions: glycan lost; control: untreated

B1: OATP1B1: tunicamycin 0.5 μg/ml, 42 h (protein)
parent chain: MDQNQHLNKTAEAQPSENKKTRYCNGLKMFLAALSLSFIAKTLGAIIMKSSIIHIERRFEISSSLVGFIDGSFEIGNLLVIVFVSYFGSKLHRPKLIGIGCFIMGIGGVLTALPHFFMGYYRYSKETNINSSENSTSTLSTCLINQILSLNRASPEIVGKGCLKESGSYMWIYVFMGNMLRGIGETPIVPLGLSYIDDFAKEGHSSLYLGILNAIAMIGPIIGFTLGSLFSKMYVDIGYVDLSTIRITPTDSRWVGAWWLNFLVSGLFSIISSIPFFFLPQTPNKPQKERKASLSLHVLETNDEKDQTANLTNQGKNITKNVTGFFQSFKSILTNPLYVMFVLLTLLQVSSYIGAFTYVFKYVEQQYGQPSSKANILLGVITIPIFASGMFLGGYIIKKFKLNTVGIAKFSCFTAVMSLSFYLLYFFILCENKSVAGLTMTYDGNNPVTSHRDVPLSYCNSDCNCDESQWEPVCGNNGITYISPCLAGCKSSSGNKKPIVFYNCSCLEVTGLQNRNYSAHLGECPRDDACTRKFYFFVAIQVLNLFFSALGGTSHVMLIVKIVQPELKSLALGFHSMVIRALGGILAPIYFGALIDTTCIKWSTNNCGTRGSCRTYNSTSFSRVYLGLSSMLRVSSLVLYIILIYAMKKKYQEKDINASENGSVMDEANLESLNKNKHFVPSAGADSETHC
With B1 the expression_or_secretion was “decreases”.
